The source of these data is US5891697A, “Monoterpene synthases from common sage (Salvia officinalis)” (Washington State University Research Foundation, priority 1997, dated 1999).

Data set [1] has as its target T1, native (+)-bornyl diphosphate synthase from sage (Salvia officinalis) (Salvia officinalis, UniProt O81192).
T1 construct: for the corresponding native enzymes
The note with it: read-out: Km (geranyl diphosphate), literature value; native enzyme; Croteau et al. 1989, 1990; cited from earlier work.

Data set [2] deals with native 1,8-cineole synthase from sage (Salvia officinalis) (Salvia officinalis, UniProt O81191). Particulars: read-out: Km (geranyl diphosphate), literature value; native enzyme; Croteau et al., Arch. Biochem. Biophys. 309:184-192, 1994; cited from earlier work.
Data set [3] concerns the molecule itself. The experiment in a line: calibrated gel permeation chromatography (Superdex S-200); single peak of activity at Mr ~200,000; self-association (homodimer).
Data set [4] deals with the molecule itself. The experiment in a line: gel permeation re-chromatography after thrombin removal of the GST tag; self-association (homodimer).
Substrate in data set [5]: CC(C)=CCC/C(C)=C/COP(=O)(O)OP(=O)(O)O
The experiment in a line: cells, lysate or membranes named. The note with it: other: recombinant SCS; 0.45 to 45 μM [1-3H]geranyl diphosphate, saturating divalent metal ion; likely somewhat high (contaminating phosphatases); pH 6.0; 31.0 °C.

Take `CC(C)=CCC/C(C)=C/COP(=O)(O)OP(=O)(O)O` [geranyl diphosphate]: the Michaelis constant (Km) (as a rule, the substrate concentration at which the rate is half of its maximum) in data set [1] is 2 µM; in data set [2], 1.1 µM.

B1: pGEX fusion form of SBS (glutathione-S-transferase fusion of the sage (+)-bornyl diphosphate synthase preprotein) (enzyme)
chain: MSIISMNVSILSKPLNCLHNLERRPSKALLVPCTAPTARLRASCSSKLQEAHQIRRSGNYQPALWDSNYIQSLNTPYTEERHLDRKAELIVQVRILLKEKMEPVQQLELIHDLKYLGLSDFFQDEIKEILGVIYNEHKCFHNNEVEKMDLYFTALGFRLLRQHGFNISQDVFNCFKNEKGIDFKASLAQDTKGMLQLYEASFLLRKGEDTLELAREFATKCLQKKLDEGGNEIDENLLLWIRHSLDLPLHWRIQSVEARWFIDAYARRPDMNPLIFELAKLNFNIIQATHQQELKDLSRWWSRLCFPEKLPFVRDRLVESFFWAVGMFEPHQHGYQRKMAATIIVLATVIDDIYDVYGTLDELELFTDTFKRWDTESITRLPYYMQLCYWGVHNYISDAAYDILKEHGFFCLQYLRKSVVDLVEAYFHEAKWYHSGYTPSLDEYLNIAKISVASPAIISPTYFTFANASHDTAVIDSLYQYHDILCLAGIILRLPDDLGTSYFELARGDVPKTIQCYMKETNASEEEAVEHVKFLIREAWKDMNTAIAAGYPFPDGMVAGAANIGRVAQFIYLHGDGFGVQHSKTYEHIAGLLFEPYA
Regarding B1, the binding result in data set [3] is given as “binds”.

B2: SBS protein after thrombin removal of the glutathione-S-transferase fusion tag ((+)-bornyl diphosphate synthase preprotein) (enzyme)
chain: B1 chain
As to B2, the binding result in data set [4] is on record as “binds”.

B3: Salvia officinalis 1,8-cineole synthase (SCS), recombinant, clone 3B5, SEQ ID No:4 (Salvia officinalis) (protein)
chain: RRTGGYQPTLWDFSTIQLFDSEYKEEKHLMRAAGMIAQVNMLLQEEVDSIQRLELIDDLRRLGISCHFDREIVEILNSKYYTNNEIDESDLYSTALRFKLLRQYDFSVSQEVFDCFKNDKGTDFKPSLVDDTRGLLQLYEASFLSAQGEETLHLARDFATKFLHKRVLVDKDINLLSSIERALELPTHWRVQMPNARSFIDAYKRRPDMNPTVLELAKLDFNMVQAQFQQELKEASRWWNSTGLVHELPFVRDRIVECYYWTTGVVERREHGYERIMLTKINALVTTIDDVFDIYGTLEELQLFTTAIQRWDIESMKQLPPYMQICYLALFNFVNEMAYDTLRDKGFNSTPYLRKAWVDLVESYLIEAKWYYMGHKPSLEEYMKNSWISIGGIPILSHLFFRLTDSIEEEDAESMHKYHDIVRASCTILRLADDMGTSLDEVERGDVPKSVQCYMNEKNASEEEAREHVRSLIDQTWKMMNKEMMTSSFSKYFVQVSANLARMAQWIYQHESDGFGMQHSLVNKMLRGLLFDRYE
As for B3, in data set [5], the Km worked out at 7.0 µM.
